Results reported in paper PMC5343656, “The human mitochondrial transcription factor A is a versatile G-quadruplex binding protein”.

Experiments:
[1] = target: T1, TFAM (mature) (human, UniProt Q00059 43-246); assay: EMSA; EMSA: 25 mM Tris-HCl pH 7.0, 90 mM NaCl, 1 mM DTT, 3% glycerol, 0.01% Tween20, 30 min, room temperature; G4s mostly prefolded in 10 mM cacodylate pH 6.5, 100 mM KCl; settings: protein: recombinant, tags: C-terminal 6xHis
T1 sequence: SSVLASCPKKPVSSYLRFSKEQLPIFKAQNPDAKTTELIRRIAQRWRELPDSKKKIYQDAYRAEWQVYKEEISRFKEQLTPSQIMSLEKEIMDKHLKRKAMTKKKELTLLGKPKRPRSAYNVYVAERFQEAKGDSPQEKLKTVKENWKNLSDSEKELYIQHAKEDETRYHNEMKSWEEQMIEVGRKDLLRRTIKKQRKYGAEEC

[2] = target: T1, TFAM (mature); assay: EMSA; single shift; EMSA: 25 mM Tris-HCl pH 7.0, 90 mM NaCl, 1 mM DTT, 3% glycerol, 0.01% Tween20, 30 min, room temperature; G4s mostly prefolded in 10 mM cacodylate pH 6.5, 100 mM KCl; settings: protein: recombinant; tags: C-terminal 6xHis; G4 tetramer of 4 strands
[3] = target: T1, TFAM (mature); assay: intrinsic fluorescence quenching; EMSA: 25 mM Tris-HCl pH 7.0, 90 mM NaCl, 1 mM DTT, 3% glycerol, 0.01% Tween20, 30 min, room temperature; G4s mostly prefolded in 10 mM cacodylate pH 6.5, 100 mM KCl; settings: protein: recombinant, tags: C-terminal 6xHis
[4] = target: T1, TFAM (mature); assay: competition; homo-competition, 32P-G4-LSP22H; EMSA: 25 mM Tris-HCl pH 7.0, 90 mM NaCl, 1 mM DTT, 3% glycerol, 0.01% Tween20, 30 min, room temperature; G4s mostly prefolded in 10 mM cacodylate pH 6.5, 100 mM KCl; settings: protein: recombinant; tags: C-terminal 6xHis; label: 5' 32P or SybrGold; G4 parallel tetramer of 4 strands
[5] = target: T1, TFAM (mature); assay: competition; vs 32P-dsLSP22; EMSA: 25 mM Tris-HCl pH 7.0, 90 mM NaCl, 1 mM DTT, 3% glycerol, 0.01% Tween20, 30 min, room temperature; G4s mostly prefolded in 10 mM cacodylate pH 6.5, 100 mM KCl; settings: protein: recombinant; tags: C-terminal 6xHis; label: 5' 32P or SybrGold; G4 parallel tetramer of 4 strands
[6] = target: T2, TFAM (mature);TFAM HMG1-L (human;human, UniProt Q00059;Q00059 43-246;43-152, |); assay: EMSA; one TFAM and one or two HMG1-L per G4; EMSA: 25 mM Tris-HCl pH 7.0, 90 mM NaCl, 1 mM DTT, 3% glycerol, 0.01% Tween20, 30 min, room temperature; G4s mostly prefolded in 10 mM cacodylate pH 6.5, 100 mM KCl; settings: protein: recombinant;recombinant; tags: C-terminal 6xHis;N-terminal His; label: 5' 32P or SybrGold; G4 parallel tetramer of 4 strands
T2 sequence 1: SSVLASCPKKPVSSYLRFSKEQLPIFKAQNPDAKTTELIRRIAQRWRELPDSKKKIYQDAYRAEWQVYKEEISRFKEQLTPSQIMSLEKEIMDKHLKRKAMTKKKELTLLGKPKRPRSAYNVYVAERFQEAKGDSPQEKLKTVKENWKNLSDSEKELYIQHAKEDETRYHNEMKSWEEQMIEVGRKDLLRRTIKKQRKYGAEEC
T2 sequence 2: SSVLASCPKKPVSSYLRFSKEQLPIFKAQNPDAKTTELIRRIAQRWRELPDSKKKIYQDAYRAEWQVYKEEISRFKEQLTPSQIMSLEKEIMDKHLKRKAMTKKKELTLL

[7] = target: T1, TFAM (mature); assay: EMSA; microscopic k1, two-site fit; EMSA: 25 mM Tris-HCl pH 7.0, 90 mM NaCl, 1 mM DTT, 3% glycerol, 0.01% Tween20, 30 min, room temperature; G4s mostly prefolded in 10 mM cacodylate pH 6.5, 100 mM KCl; settings: protein: recombinant; tags: C-terminal 6xHis; label: 5' 32P or SybrGold; G4 parallel tetramer of 4 strands
[8] = target: T3, TFAM (mature);TFAM HMG1 (human;human, UniProt Q00059;Q00059 43-246;43-125, |); assay: EMSA; one TFAM and one HMG1 per G4; EMSA: 25 mM Tris-HCl pH 7.0, 90 mM NaCl, 1 mM DTT, 3% glycerol, 0.01% Tween20, 30 min, room temperature; G4s mostly prefolded in 10 mM cacodylate pH 6.5, 100 mM KCl; settings: protein: recombinant;recombinant; tags: C-terminal 6xHis;; label: 5' 32P or SybrGold; G4 parallel tetramer of 4 strands
T3 sequence 1: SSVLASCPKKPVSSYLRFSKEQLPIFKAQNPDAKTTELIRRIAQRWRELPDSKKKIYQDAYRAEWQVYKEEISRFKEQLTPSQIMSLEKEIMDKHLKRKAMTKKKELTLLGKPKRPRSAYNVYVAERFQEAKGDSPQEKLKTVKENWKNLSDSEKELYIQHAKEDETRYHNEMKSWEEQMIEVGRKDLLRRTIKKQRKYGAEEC
T3 sequence 2: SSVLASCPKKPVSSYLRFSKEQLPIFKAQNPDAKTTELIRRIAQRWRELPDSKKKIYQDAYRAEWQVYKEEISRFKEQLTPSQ

[9] = target: T1, TFAM (mature); assay: EMSA; microscopic k2, two-site fit; k12 0.58; EMSA: 25 mM Tris-HCl pH 7.0, 90 mM NaCl, 1 mM DTT, 3% glycerol, 0.01% Tween20, 30 min, room temperature; G4s mostly prefolded in 10 mM cacodylate pH 6.5, 100 mM KCl; settings: protein: recombinant; tags: C-terminal 6xHis; label: 5' 32P or SybrGold; G4 parallel tetramer of 4 strands
[10] = target: T1, TFAM (mature); assay: EMSA; similar to unmodified c-myc; EMSA: 25 mM Tris-HCl pH 7.0, 90 mM NaCl, 1 mM DTT, 3% glycerol, 0.01% Tween20, 30 min, room temperature; G4s mostly prefolded in 10 mM cacodylate pH 6.5, 100 mM KCl; settings: protein: recombinant; tags: C-terminal 6xHis; intramolecular G4
[11] = target: T1, TFAM (mature); assay: competition; vs 32P CSBII G4-DNA/RNA; EMSA: 25 mM Tris-HCl pH 7.0, 90 mM NaCl, 1 mM DTT, 3% glycerol, 0.01% Tween20, 30 min, room temperature; G4s mostly prefolded in 10 mM cacodylate pH 6.5, 100 mM KCl; settings: protein: recombinant; tags: C-terminal 6xHis; duplex
[12] = label: 5' 32P, G4 tetramer of 4 strands
[13] = label: 5' 32P or SybrGold, G4 parallel tetramer of 4 strands

TGGGGGGT (structured_DNA) [(TG6T)4]
binding result ([1]; G4 tetramer of 4 strands): no binding

TAGTTGGGGGGT (structured_DNA) [(TAGTTG6T)4]
binding result [2]: binds

TCACAGGGGTGTGGGGACAGGGGTGTGGGGTGACT (structured_DNA) [ILPR G4 extended]
Kd ([1]; intramolecular G4): ~26 nM

AATAATGTGTTAGTTGGGGGGTG (structured_DNA) [G4-LSPas]
binding signal [3, 12]: ~70 % Trp quenching | Kd [1, 12]: 0.89 nM

ACAGGGGTGTGGGGACAGGGGTGTGGGG (structured_DNA) [ILPR G4]
Kd ([1]; label: 5' 32P, intramolecular G4, mostly antiparallel by CD): 118 nM

GTTAGTTGGGGGGTGACTGTTA (structured_DNA) [G4-LSP22H]
binding signal [4]: 10 fold excess for 50% free probe | binding signal [3, 13]: ~70 % Trp quenching | binding signal [5]: 1.6 fold excess for 50% displacement | binding result [6]: binds | Ka [7]: 0.61 ± 0.12 10^9 M^-1 | binding result [8]: binds | Kd [1, 13]: 0.65 nM | Ka [9]: 0.69 ± 0.25 10^9 M^-1

B1: CSBII G4-DNA/RNA (mixed)
DNA: GAAGCGGGGGAGGGGGGGTTTGGTGGAAAT
RNA: GAAGCGGGGGAGGGGGGGUUUGGUGGAAAU
Kd ([1]; label: 5' 32P, hybrid G4 bimolecular): 1.85 nM

GAAGCGGGGGAGGGGGGGUUUGGUGGAAAU (structured_RNA) [CSBII G4-RNA]
Kd ([1]; label: 5' 32P, G4 bimolecular): 1.25 nM

B2: dsLSP22 (dsDNA)
DNA 1: GTTAGTTGGGGGGTGACTGTTA
DNA 2: TAACAGTCACCCCCCAACTAAC
binding signal ([3]; label: 5' 32P (EMSA), blunt): ~50 % Trp quenching | Kd ([1]; label: 5' 32P (EMSA), blunt): 9.2 nM

TCTGAGGGTGGGTAGGGTGGGTAACT (structured_DNA) [c-myc G4 extended]
binding result [10]: binds

B3: CSBII DNA/RNA heteroduplex competitor (DNA:RNA)
RNA: GAAGCGGGGGAGGGGGGGUUUGGUGGAAAU
DNA: ATTTCCACCAAACCCCCCCTCCCCCGCTTC
binding signal [11]: ~80 % free probe at 500-fold excess

TGAGGGTGGGTAGGGTGGGTAA (structured_DNA) [c-myc G4]
Kd ([1]; label: 5' 32P, intramolecular G4, parallel by CD): 53 nM

TGGGGGGTGACT (structured_DNA) [(TG6TGACT)4]
Kd [2]: 5 nM

GAAGCGGGGGAGGGGGGGTTTGGTGGAAAT (structured_DNA) [CSBII G4-DNA (EMSA)]
Kd ([1]; label: 5' 32P, G4, purified bimolecular): 3.65 nM
